# Assay results reported in PMC8246987.
# B1: DJ‐1, Q99497 1-189 (natural protein)
# chain: MASKRALVILAKGAEEMETVIPVDVMRRAGIKVTVAGLAGKDPVQCSRDVVICPDASLEDAKKEGPYDVVVLPGGNLGAQNLSESAAVKEILKEQENRKGLIAAICAGPTALLAHEIGFGSKVTTHPLAKDKMMNGGHYTYSENRVEKDGLILTSRGPGTSFEFALAIVEALNGKEVAAQVKAPLVLKD
# Molecular target: T1, DJ‐1 (human (endogenous in HEK‐293)), Q99497
# T1 chain: B1 chain
# Test: cross-linking
# Conditions: remark: other sources report otherwise
binder,measurement,value
B1,stoichiometry N,2
